Laboratory results taken from patent publication US20150374794A1 (Novo Nordisk, published 2015).
Numbered stars: 1 amine (or outer) side, 2 acyl side, 3 side chain; on linkers, the order of the positions; unused ones are H or OH. Square brackets hold non-standard residues; d marks the D form. Side chains are listed from the residue outwards. Ends that are not written are not given here. * marks the point of attachment. C18 diacid = O=C(O)CCCCCCCCCCCCCCCCC(=O)*; γGlu = O=C(O)[C@H](CCC(=O)[*:2])N[*:1]; Ac4c = NC1(C(=O)O)CCC1; AEEA = NCCOCCOCC(=O)O; Aib = CC(C)(N)C(=O)O

Assays:
human glucagon receptor [1] = target: T1, human glucagon receptor (human, UniProt P47871 26-477); test: displacement of 125I-glucagon, membranes with human glucagon receptor, SPA
T1 construct: whole, on cells; the potency assay used whole cells (clone pLJ6'-4-25); also called GlucR; hGCGR
Protocol: (§1) The receptor binding of each compound to the human glucagon receptor was measured in a displacement binding assay. […] Each derivative was added in a series of concentrations to isolated membranes containing the human glucagon receptor and displacement of the labelled ligand is monitored. The receptor binding was reported as the concentration at which half of the labelled ligand is displaced from the receptor, the IC₅₀ value.

human GLP-1 receptor [2] = target: T2, human GLP-1 receptor (human, UniProt P43220 24-463); test: displacement of 125I-GLP-1(7-36)NH2, membranes with human GLP-1R, SPA
T2 construct: whole, on cells; the potency assay used whole cells (clone FCW467-12A/KZ10-1)
Protocol: as §1, with “human GLP-1” for “human glucagon”, “ligand was” for “ligand is”

human glucagon receptor [3] = target: T1, human glucagon receptor; test: cell-based or functional assay
human GLP-1 receptor [4] = target: T2, human GLP-1 receptor; test: cell-based or functional assay

T1 sequence (P47871 26-477): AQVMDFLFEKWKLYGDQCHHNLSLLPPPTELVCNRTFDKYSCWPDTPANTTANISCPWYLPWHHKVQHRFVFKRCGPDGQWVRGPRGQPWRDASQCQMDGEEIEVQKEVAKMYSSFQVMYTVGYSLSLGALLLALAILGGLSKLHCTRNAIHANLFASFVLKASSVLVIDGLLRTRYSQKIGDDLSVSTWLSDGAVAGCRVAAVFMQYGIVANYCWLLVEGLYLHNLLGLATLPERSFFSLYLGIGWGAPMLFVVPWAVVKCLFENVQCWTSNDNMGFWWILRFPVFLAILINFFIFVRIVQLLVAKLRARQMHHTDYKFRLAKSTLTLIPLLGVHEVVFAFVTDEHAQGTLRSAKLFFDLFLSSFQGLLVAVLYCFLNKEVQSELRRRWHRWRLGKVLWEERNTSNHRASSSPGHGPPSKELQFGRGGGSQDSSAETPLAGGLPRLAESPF

Row | Binder | IC50 (human glucagon receptor [1]) [nM] | IC50 (human GLP-1 receptor [2]) [nM] | EC50 GlucR, CRE luciferase reporter gene assay in BHK cells (human glucagon receptor [3]) [nM] | EC50 GLP-1R, CRE luciferase reporter gene assay in BHK cells (human GLP-1 receptor [4]) [nM]
1 | H[Aib]QGTFTSDLSKYLDK([γGlu-γGlu-AEEA-AEEA-γGlu-C18 diacid])KRAQEFVQWLLNT-NH2 (N-terminus assumed; SMILES CC(C)C[C@H](NC(=O)[C@H](Cc1ccc(O)cc1)NC(=O)[C@H](CCCCN)NC(=O)[C@H](CO)NC(=O)[C@H](CC(C)C)NC(=O)[C@H](CC(=O)O)NC(=O)[C@H](CO)NC(=O)[C@@H](NC(=O)[C@H](Cc1ccccc1)NC(=O)[C@@H](NC(=O)CNC(=O)[C@H](CCC(N)=O)NC(=O)C(C)(C)NC(=O)[C@@H](N)Cc1c[nH]cn1)[C@@H](C)O)[C@@H](C)O)C(=O)N[C@@H](CC(=O)O)C(=O)N[C@@H](CCCCNC(=O)CC[C@H](NC(=O)CC[C@H](NC(=O)COCCOCCNC(=O)COCCOCCNC(=O)CC[C@H](NC(=O)CCCCCCCCCCCCCCCCC(=O)O)C(=O)O)C(=O)O)C(=O)O)C(=O)N[C@@H](CCCCN)C(=O)N[C@@H](CCCNC(=N)N)C(=O)N[C@@H](C)C(=O)N[C@@H](CCC(N)=O)C(=O)N[C@@H](CCC(=O)O)C(=O)N[C@@H](Cc1ccccc1)C(=O)N[C@H](C(=O)N[C@@H](CCC(N)=O)C(=O)N[C@@H](Cc1c[nH]c2ccccc12)C(=O)N[C@@H](CC(C)C)C(=O)N[C@@H](CC(C)C)C(=O)N[C@@H](CC(N)=O)C(=O)N[C@H](C(N)=O)[C@@H](C)O)C(C)C) | 1.1 | 2.4 | – | –
2 | H[Ac4c]QGTFTSDLSKYLESKRAREFVQWLLK([γGlu-γGlu-Ser-Glu-Ser-γGlu-γGlu-C18 diacid])T-NH2 | 0.6 | 0.3 | 0.005 | –
3 | H[Aib]QGTFTSDLSKYLDKKAAREFVAWLLNT-NH2 (not fully specified) | 53 | 0.2 | – | –
4 | H[Aib]QGTFTSDLSKYLDLRRAQDFVQWLLK([γGlu-γGlu-Ser-Glu-Ser-γGlu-γGlu-C18 diacid])T-NH2 | – | 1.9 | 0.007 | 0.011
5 | H[Aib]QGTFTSDLSKYLESKRAREFVQWLLK([Gly-Ser-Glu-Gly-Ser-γGlu-γGlu-C18 diacid])T-NH2 | 5.1 | 0.2 | – | 0.0057
6 | H[Ac4c]QGTFTSDLSKYLESKRAREFVQWLLK([Gly-Ser-Glu-Gly-Ser-γGlu-γGlu-C18 diacid])T-NH2 | 0.6 | 0.2 | 0.004 | –
7 | H[Aib]HGTFTSDLSKYLESRRAREFVQWLLK([γGlu-γGlu-AEEA-AEEA-γGlu-C18 diacid])T-NH2 (N-terminus assumed; SMILES CC(C)C[C@H](NC(=O)[C@H](Cc1ccc(O)cc1)NC(=O)[C@H](CCCCN)NC(=O)[C@H](CO)NC(=O)[C@H](CC(C)C)NC(=O)[C@H](CC(=O)O)NC(=O)[C@H](CO)NC(=O)[C@@H](NC(=O)[C@H](Cc1ccccc1)NC(=O)[C@@H](NC(=O)CNC(=O)[C@H](Cc1c[nH]cn1)NC(=O)C(C)(C)NC(=O)[C@@H](N)Cc1c[nH]cn1)[C@@H](C)O)[C@@H](C)O)C(=O)N[C@@H](CCC(=O)O)C(=O)N[C@@H](CO)C(=O)N[C@@H](CCCNC(=N)N)C(=O)N[C@@H](CCCNC(=N)N)C(=O)N[C@@H](C)C(=O)N[C@@H](CCCNC(=N)N)C(=O)N[C@@H](CCC(=O)O)C(=O)N[C@@H](Cc1ccccc1)C(=O)N[C@H](C(=O)N[C@@H](CCC(N)=O)C(=O)N[C@@H](Cc1c[nH]c2ccccc12)C(=O)N[C@@H](CC(C)C)C(=O)N[C@@H](CC(C)C)C(=O)N[C@@H](CCCCNC(=O)CC[C@H](NC(=O)CC[C@H](NC(=O)COCCOCCNC(=O)COCCOCCNC(=O)CC[C@H](NC(=O)CCCCCCCCCCCCCCCCC(=O)O)C(=O)O)C(=O)O)C(=O)O)C(=O)N[C@H](C(N)=O)[C@@H](C)O)C(C)C) | – | 0.6 | 0.0036 | 0.0146
8 | H[Ac4c]QGTFTSDLSKYLESRRAREFVQWLLK([γGlu-γGlu-AEEA-AEEA-γGlu-C18 diacid])T-NH2 (N-terminus assumed; SMILES CC(C)C[C@H](NC(=O)[C@H](Cc1ccc(O)cc1)NC(=O)[C@H](CCCCN)NC(=O)[C@H](CO)NC(=O)[C@H](CC(C)C)NC(=O)[C@H](CC(=O)O)NC(=O)[C@H](CO)NC(=O)[C@@H](NC(=O)[C@H](Cc1ccccc1)NC(=O)[C@@H](NC(=O)CNC(=O)[C@H](CCC(N)=O)NC(=O)C1(NC(=O)[C@@H](N)Cc2c[nH]cn2)CCC1)[C@@H](C)O)[C@@H](C)O)C(=O)N[C@@H](CCC(=O)O)C(=O)N[C@@H](CO)C(=O)N[C@@H](CCCNC(=N)N)C(=O)N[C@@H](CCCNC(=N)N)C(=O)N[C@@H](C)C(=O)N[C@@H](CCCNC(=N)N)C(=O)N[C@@H](CCC(=O)O)C(=O)N[C@@H](Cc1ccccc1)C(=O)N[C@H](C(=O)N[C@@H](CCC(N)=O)C(=O)N[C@@H](Cc1c[nH]c2ccccc12)C(=O)N[C@@H](CC(C)C)C(=O)N[C@@H](CC(C)C)C(=O)N[C@@H](CCCCNC(=O)CC[C@H](NC(=O)CC[C@H](NC(=O)COCCOCCNC(=O)COCCOCCNC(=O)CC[C@H](NC(=O)CCCCCCCCCCCCCCCCC(=O)O)C(=O)O)C(=O)O)C(=O)O)C(=O)N[C@H](C(N)=O)[C@@H](C)O)C(C)C) | – | 0.3 | 0.01 | 0.003
9 | H[Ac4c]QGTFTSDLSKYLESRRAREFVQWLLK([γGlu-γGlu-AEEA-AEEA-γGlu-γGlu-C18 diacid])T-NH2 (N-terminus assumed; SMILES CC(C)C[C@H](NC(=O)[C@H](Cc1ccc(O)cc1)NC(=O)[C@H](CCCCN)NC(=O)[C@H](CO)NC(=O)[C@H](CC(C)C)NC(=O)[C@H](CC(=O)O)NC(=O)[C@H](CO)NC(=O)[C@@H](NC(=O)[C@H](Cc1ccccc1)NC(=O)[C@@H](NC(=O)CNC(=O)[C@H](CCC(N)=O)NC(=O)C1(NC(=O)[C@@H](N)Cc2c[nH]cn2)CCC1)[C@@H](C)O)[C@@H](C)O)C(=O)N[C@@H](CCC(=O)O)C(=O)N[C@@H](CO)C(=O)N[C@@H](CCCNC(=N)N)C(=O)N[C@@H](CCCNC(=N)N)C(=O)N[C@@H](C)C(=O)N[C@@H](CCCNC(=N)N)C(=O)N[C@@H](CCC(=O)O)C(=O)N[C@@H](Cc1ccccc1)C(=O)N[C@H](C(=O)N[C@@H](CCC(N)=O)C(=O)N[C@@H](Cc1c[nH]c2ccccc12)C(=O)N[C@@H](CC(C)C)C(=O)N[C@@H](CC(C)C)C(=O)N[C@@H](CCCCNC(=O)CC[C@H](NC(=O)CC[C@H](NC(=O)COCCOCCNC(=O)COCCOCCNC(=O)CC[C@H](NC(=O)CC[C@H](NC(=O)CCCCCCCCCCCCCCCCC(=O)O)C(=O)O)C(=O)O)C(=O)O)C(=O)O)C(=O)N[C@H](C(N)=O)[C@@H](C)O)C(C)C) | – | 0.3 | 0.011 | 0.006
